Assay results as given in patent US20120238493A1 (INDIANA UNIVERSITY RESEARCH AND TECHNOLOGY, published 2012).
*1 amine or outer side, *2 acyl side, *3 side chain or, on linkers, in order; H or OH if unused. Where no end group is shown, it is not given here. Side-chain parts run from the residue outwards. [ ]: non-standard residue; d: D form. The star is where a group is joined. γGlu = O=C(O)[C@H](CCC(=O)[*:2])N[*:1]; Palmitoyl = CCCCCCCCCCCCCCCC(=O)*; Myristoyl = CCCCCCCCCCCCCC(=O)*; 40K‑ME = not defined here; 40K‑TE = not defined here; Ac3c = NC1(C(=O)O)CC1; Aib = CC(C)(N)C(=O)O

T1: GIP receptor (UniProt P48546 22-466, limits assumed)
T1 sequence (looked up): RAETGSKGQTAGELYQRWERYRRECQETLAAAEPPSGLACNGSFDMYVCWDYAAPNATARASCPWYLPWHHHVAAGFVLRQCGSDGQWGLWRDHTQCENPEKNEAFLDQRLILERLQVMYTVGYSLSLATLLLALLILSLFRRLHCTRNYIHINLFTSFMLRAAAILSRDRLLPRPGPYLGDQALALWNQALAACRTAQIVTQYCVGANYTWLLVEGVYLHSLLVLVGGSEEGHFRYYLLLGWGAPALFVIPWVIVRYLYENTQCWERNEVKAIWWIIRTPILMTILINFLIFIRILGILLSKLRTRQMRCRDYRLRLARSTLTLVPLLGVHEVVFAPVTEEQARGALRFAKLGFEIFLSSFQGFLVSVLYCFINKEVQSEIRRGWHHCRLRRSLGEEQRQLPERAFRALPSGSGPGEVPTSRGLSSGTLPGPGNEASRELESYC

B1: peptide of SEQ ID NO: 174 (peptide)
peptide: Y[Aib]QGTFTSDYSIYLDKQAA[Aib]EFVC(40K‑TE PEG)WLLAGGPSSGAPPPSK(C14)-NH2
B2: peptide of SEQ ID NO: 68 (peptide)
peptide: Y[Aib]QGTFTSDK([γGlu-Myristoyl])SIYLDKQAA[Aib]EFVNWLLAGGPSSGAPPPSC(40K‑ME)-NH2
modifications: reading uncertain
B3: peptide of SEQ ID NO: 72 (peptide)
peptide: Y[Aib]EGTFISDYSIYLDKQAA[Aib]EFVNWLLAGGPSSGAPPPSC(40K‑TE)-NH2
modifications: not fully specified; reading uncertain
B4: peptide of SEQ ID NO: 53 (peptide)
peptide: H[Aib]QGTFTSDYSIYLDKQAA[Aib]EFVNWLLAGGPSSGAPPPSC(40K‑TE)-NH2
modifications: reading uncertain
B5: peptide of SEQ ID NO: 70 (peptide)
peptide: Y[Aib]QGTFTSDYSIYLDKQAA[Aib]EFVC(40K‑ME)WLLAGGPSSGAPPPSK(Palmitoyl)-NH2
modifications: not fully specified; reading uncertain
B6: peptide of SEQ ID NO: 52 (peptide)
peptide: H[Aib]QGTFTSDYSIYLDKQAA[Aib]EFVNWLLAGGPSSGAPPPSC-NH2
modifications: N-terminus assumed
SMILES: CC[C@H](C)[C@H](NC(=O)[C@H](CO)NC(=O)[C@H](Cc1ccc(O)cc1)NC(=O)[C@H](CC(=O)O)NC(=O)[C@H](CO)NC(=O)[C@@H](NC(=O)[C@H](Cc1ccccc1)NC(=O)[C@@H](NC(=O)CNC(=O)[C@H](CCC(N)=O)NC(=O)C(C)(C)NC(=O)[C@@H](N)Cc1c[nH]cn1)[C@@H](C)O)[C@@H](C)O)C(=O)N[C@@H](Cc1ccc(O)cc1)C(=O)N[C@@H](CC(C)C)C(=O)N[C@@H](CC(=O)O)C(=O)N[C@@H](CCCCN)C(=O)N[C@@H](CCC(N)=O)C(=O)N[C@@H](C)C(=O)N[C@@H](C)C(=O)NC(C)(C)C(=O)N[C@@H](CCC(=O)O)C(=O)N[C@@H](Cc1ccccc1)C(=O)N[C@H](C(=O)N[C@@H](CC(N)=O)C(=O)N[C@@H](Cc1c[nH]c2ccccc12)C(=O)N[C@@H](CC(C)C)C(=O)N[C@@H](CC(C)C)C(=O)N[C@@H](C)C(=O)NCC(=O)NCC(=O)N1CCC[C@H]1C(=O)N[C@@H](CO)C(=O)N[C@@H](CO)C(=O)NCC(=O)N[C@@H](C)C(=O)N1CCC[C@H]1C(=O)N1CCC[C@H]1C(=O)N1CCC[C@H]1C(=O)N[C@@H](CO)C(=O)N[C@@H](CS)C(N)=O)C(C)C
B7: peptide of SEQ ID NO: 59 (peptide)
peptide: Y[Aib]QGTFTSDYSIYLDKEAA[Aib]KFVNWLLAGGPSSGAPPPSC(40K‑TE)-NH2
modifications: lactam (positions not given here); reading uncertain; also: lactam between underlined residues, underlining not shown
B8: peptide of SEQ ID NO: 69 (peptide)
peptide: Y[Aib]QGTFTSDK([γGlu-Palmitoyl])SIYLDKQAA[Aib]EFVNWLLAGGPSSGAPPPSC(40K‑ME)-NH2
modifications: reading uncertain
B9: peptide of SEQ ID NO: 48 (peptide)
peptide: H[dS]QGTFTSDYSIYLDKQAA[Aib]EFVNWLLAGGPSSGAPPPSC-NH2
modifications: N-terminus assumed
SMILES: CC[C@H](C)[C@H](NC(=O)[C@H](CO)NC(=O)[C@H](Cc1ccc(O)cc1)NC(=O)[C@H](CC(=O)O)NC(=O)[C@H](CO)NC(=O)[C@@H](NC(=O)[C@H](Cc1ccccc1)NC(=O)[C@@H](NC(=O)CNC(=O)[C@H](CCC(N)=O)NC(=O)[C@@H](CO)NC(=O)[C@@H](N)Cc1c[nH]cn1)[C@@H](C)O)[C@@H](C)O)C(=O)N[C@@H](Cc1ccc(O)cc1)C(=O)N[C@@H](CC(C)C)C(=O)N[C@@H](CC(=O)O)C(=O)N[C@@H](CCCCN)C(=O)N[C@@H](CCC(N)=O)C(=O)N[C@@H](C)C(=O)N[C@@H](C)C(=O)NC(C)(C)C(=O)N[C@@H](CCC(=O)O)C(=O)N[C@@H](Cc1ccccc1)C(=O)N[C@H](C(=O)N[C@@H](CC(N)=O)C(=O)N[C@@H](Cc1c[nH]c2ccccc12)C(=O)N[C@@H](CC(C)C)C(=O)N[C@@H](CC(C)C)C(=O)N[C@@H](C)C(=O)NCC(=O)NCC(=O)N1CCC[C@H]1C(=O)N[C@@H](CO)C(=O)N[C@@H](CO)C(=O)NCC(=O)N[C@@H](C)C(=O)N1CCC[C@H]1C(=O)N1CCC[C@H]1C(=O)N1CCC[C@H]1C(=O)N[C@@H](CO)C(=O)N[C@@H](CS)C(N)=O)C(C)C
B10: peptide of SEQ ID NO: 50 (peptide)
peptide: Y[dS]QGTFTSDYSIYLDKQAA[Aib]EFVNWLLAGGPSSGAPPPSC-NH2
modifications: N-terminus assumed
SMILES: CC[C@H](C)[C@H](NC(=O)[C@H](CO)NC(=O)[C@H](Cc1ccc(O)cc1)NC(=O)[C@H](CC(=O)O)NC(=O)[C@H](CO)NC(=O)[C@@H](NC(=O)[C@H](Cc1ccccc1)NC(=O)[C@@H](NC(=O)CNC(=O)[C@H](CCC(N)=O)NC(=O)[C@@H](CO)NC(=O)[C@@H](N)Cc1ccc(O)cc1)[C@@H](C)O)[C@@H](C)O)C(=O)N[C@@H](Cc1ccc(O)cc1)C(=O)N[C@@H](CC(C)C)C(=O)N[C@@H](CC(=O)O)C(=O)N[C@@H](CCCCN)C(=O)N[C@@H](CCC(N)=O)C(=O)N[C@@H](C)C(=O)N[C@@H](C)C(=O)NC(C)(C)C(=O)N[C@@H](CCC(=O)O)C(=O)N[C@@H](Cc1ccccc1)C(=O)N[C@H](C(=O)N[C@@H](CC(N)=O)C(=O)N[C@@H](Cc1c[nH]c2ccccc12)C(=O)N[C@@H](CC(C)C)C(=O)N[C@@H](CC(C)C)C(=O)N[C@@H](C)C(=O)NCC(=O)NCC(=O)N1CCC[C@H]1C(=O)N[C@@H](CO)C(=O)N[C@@H](CO)C(=O)NCC(=O)N[C@@H](C)C(=O)N1CCC[C@H]1C(=O)N1CCC[C@H]1C(=O)N1CCC[C@H]1C(=O)N[C@@H](CO)C(=O)N[C@@H](CS)C(N)=O)C(C)C
B11: peptide of SEQ ID NO: 60 (peptide)
peptide: Y[Aib]QGTFTSDYSIYLDKQAA[Ac3c]EFVNWLLAGGPSSGAPPPSC-NH2
B12: peptide of SEQ ID NO: 56 (peptide)
peptide: Y[Aib]QGTFTSDYSIYLDEQAAKEFV[Aib]WLLAGGPSSGAPPPSC-NH2
modifications: lactam (positions not given here); also: lactam between underlined residues, underlining not shown
B13: peptide of SEQ ID NO: 58 (peptide)
peptide: Y[Aib]QGTFTSDYSIYLDKEAA[Aib]KFVNWLLAGGPSSGAPPPSC-NH2
modifications: lactam (positions not given here); also: lactam between underlined residues, underlining not shown
B14: peptide of SEQ ID NO: 54 (peptide)
peptide: Y[Aib]QGTFTSDYSIYLDKQAA[Aib]EFV[Aib]WLLAGGPSSGAPPPSC-NH2
modifications: N-terminus assumed
SMILES: CC[C@H](C)[C@H](NC(=O)[C@H](CO)NC(=O)[C@H](Cc1ccc(O)cc1)NC(=O)[C@H](CC(=O)O)NC(=O)[C@H](CO)NC(=O)[C@@H](NC(=O)[C@H](Cc1ccccc1)NC(=O)[C@@H](NC(=O)CNC(=O)[C@H](CCC(N)=O)NC(=O)C(C)(C)NC(=O)[C@@H](N)Cc1ccc(O)cc1)[C@@H](C)O)[C@@H](C)O)C(=O)N[C@@H](Cc1ccc(O)cc1)C(=O)N[C@@H](CC(C)C)C(=O)N[C@@H](CC(=O)O)C(=O)N[C@@H](CCCCN)C(=O)N[C@@H](CCC(N)=O)C(=O)N[C@@H](C)C(=O)N[C@@H](C)C(=O)NC(C)(C)C(=O)N[C@@H](CCC(=O)O)C(=O)N[C@@H](Cc1ccccc1)C(=O)N[C@H](C(=O)NC(C)(C)C(=O)N[C@@H](Cc1c[nH]c2ccccc12)C(=O)N[C@@H](CC(C)C)C(=O)N[C@@H](CC(C)C)C(=O)N[C@@H](C)C(=O)NCC(=O)NCC(=O)N1CCC[C@H]1C(=O)N[C@@H](CO)C(=O)N[C@@H](CO)C(=O)NCC(=O)N[C@@H](C)C(=O)N1CCC[C@H]1C(=O)N1CCC[C@H]1C(=O)N1CCC[C@H]1C(=O)N[C@@H](CO)C(=O)N[C@@H](CS)C(N)=O)C(C)C
B15: peptide of SEQ ID NO: 51 (peptide)
peptide: Y[dS]QGTFTSDYSIYLDKQAA[Aib]EFVNWLLAGGPSSGAPPPSC(40K‑TE)-NH2
modifications: reading uncertain

Key:
Experiment in all cases: cell-based or functional assay
GLP-1 receptor = GLP-1 receptor (UniProt P43220 24-463, limits assumed)
GIP receptor = target: T1, GIP receptor
glucagon receptor = glucagon receptor (UniProt P47871 26-477, limits assumed)
glucagon receptor, sequence (P47871 26-477 limits assumed): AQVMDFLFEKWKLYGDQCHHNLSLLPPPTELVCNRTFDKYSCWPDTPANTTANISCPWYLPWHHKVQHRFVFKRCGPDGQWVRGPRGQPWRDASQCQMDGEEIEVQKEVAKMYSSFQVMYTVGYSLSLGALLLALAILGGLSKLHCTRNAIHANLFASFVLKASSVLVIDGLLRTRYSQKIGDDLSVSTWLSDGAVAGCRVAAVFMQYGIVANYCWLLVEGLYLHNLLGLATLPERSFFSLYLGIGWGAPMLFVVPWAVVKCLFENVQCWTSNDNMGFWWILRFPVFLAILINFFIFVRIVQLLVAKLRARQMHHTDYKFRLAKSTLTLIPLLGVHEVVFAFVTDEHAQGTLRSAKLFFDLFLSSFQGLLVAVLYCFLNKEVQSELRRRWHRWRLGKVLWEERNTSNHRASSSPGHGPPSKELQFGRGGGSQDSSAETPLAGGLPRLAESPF

Binder	EC50 (cAMP reporter) (GLP-1 receptor)	EC50 (cAMP reporter) (GIP receptor)	EC50 (cAMP reporter) (glucagon receptor)
B1	0.01 nM	0.019 nM	
B2	0.612 nM	0.862 nM	50.1 nM
B3	2.69 nM	0.035 nM	1.68 nM
B4	0.027 nM	0.232 nM	3.51 nM
B5	0.007 nM	0.014 nM	0.018 nM
B6	0.005 nM	0.006 nM	0.2 nM
B7	0.063 nM	0.122 nM	0.432 nM
B8	0.02 nM	0.015 nM	0.055 nM
B9	0.01 nM	0.433 nM	0.026 nM
B10	0.108 nM	0.072 nM	0.041 nM
B11	0.0028 nM		0.047 nM
B12	0.096 nM	1.98 nM	1.27 nM
B13	0.014 nM	0.005 nM	0.063 nM
B14	0.091 nM	0.467 nM	0.566 nM
B15	0.572 nM	0.433 nM	0.255 nM
